{"source": "the DeepSol protein solubility set"}
{"experiment": "soluble on expression in E. coli; label from the status in PepcDB or PDB records"}
{"sequence": "MKIAGIDEAGRGPVIGPMVIAAVVVDENSLPKLEELKVRDSKKLTPKRREKLFNEILGVLDDYVILELPPDVIGSREGTLNEFEVENFAKALNSLKVKPDVIYADAADVDEERFARELGERLNFEAEVVAKHKADDIFPVVSAASILAKVTRDRAVEKLKEEYGEIGSGYPSDPRTRAFLENYYREHGEFPPIVRKGWKTLKKIAEKVESEKTQDMINKST", "soluble on expression in E. coli": "soluble"}
{"sequence": "MKIATYNVRVDTEYDQDWQWSFRKEAVCQLINFHDWSLCCIQEVRPNQVRDLKAYTTFTCLSAEREGDGQGEGLAILYNEQKVQAIDTGYFWLSETPQQPSIHPEAGCPRIALWGLFKETTQNTPFLVINVHLDHISAHARLAGMTVILEELHDKIAQYPTLLMGDFNAESGEEVHQLVQKKFQDSKNLATHYGPRGTFQNFTYTKPWAELEEIDYIYVKGWQVQQTASLTDSIDGRFPSDHFPLEAEVCIEER", "soluble on expression in E. coli": "not soluble"}
{"sequence": "MKIAVVTESSANLKAQAVKDYQITVVNDPIMFGNHVYHENVDITTDQFYRLLKVEKEIPTISQISMPEMQVVFDQLQAAGYDQILVIGLSSGISGWINNLKTYAPSVDGIDVRVFDSRTACAGTANMVKLAAAMALADYTLDEIIAQLTRLRAATTTVLIVNSMRHLVKNGRIYNNSSLAGTMVLRNKPIITFNGHGKIQLLGKERTLKNAQQAVQDEFSQFVMNSQLPVRLDVISANDARIAEDWASELRYQFPAVRVKTGVIGPVLGVLTGDHALGMIWSLDWKPLLTTLNQEQKQ", "soluble on expression in E. coli": "not soluble"}
{"sequence": "MKICTMGLGYIGLPTSAMFAKYGTEVVGVDIHQKVVDKLNNGEIHIEEPGLGEVVKEVVANGKFRASLTPEEADAFIISVPTPNHDDEHKSCDLSYVLTATEKVLPFVKKGNVIIVESTIAPRSMDDYVKPLVEEAGFTVGEDIYLVHCPERVLPGQILHELVHNNRIVGGVTPACAEAGARVYGVFVEGEIIKTNAKTAEMSKLMENTFRDVNIALANELTKVCNSLDINVLDVIEMANKHPRVNLHYPGPGVGGHCLAVDPYFIVAKAPELANIIKLSRETNVSMPHYVTEKVKELLAGVENPKVAAFGVTYKGNVDDMRESPAMDVIDLIRNEGITVSAHDPHVESDFFELHSAEEAVKDAHLILVLTDHDEFKTMNYDSLAPYMAKTVVFDTRNCVQAVSTGEMKIINFGTLYEALNKNVMMV", "soluble on expression in E. coli": "not soluble"}
{"sequence": "MKIGIGSDHGGYNLKREIADFLKKRGYEVIDFGTHGNESVDYPDFGLKVAEAVKSGECDRGIVICGTGLGISIAANKVPGIRAAVCTNSYMARMSREHNDANILALGERVVGLDLALDIVDTWLKAEFQGGRHATRVGKIGEIEKKYSK", "soluble on expression in E. coli": "soluble"}
{"sequence": "MKIKIFIITSLIILTSVSCRRNVFNPSIPNRTQFVEDPIANLSIPSKDAAVEVIPVESIYKTGQTSLIYNWYIHFFDFNGKYYLTARDKCSYDSANKTMIITNNSYYNLLEIDVNDNFYMKEIRTNIDSSIPDDNRIINAFTKIVNGEAYTNADTIFIQDGGKYYSSKNIITWTEISQIPSDASKKEATDQYKIPITAQNGKTYTYVYASGAREFSISRLSDRMKQLAKRLETKFDFKEEDFNNHHMFDIGLNENGSSNPDFRLNPTNYLNNDTNYVYMGATDAAGQLWLLPVKKNGKDYLVRLPEHGGPELYIISDLQNDMNTYQTKAQESLTKALSLAASGGDTSAIEDACYESILNDANYKANKYFLDVIDKMGAKVNFGTTVYATSSKPITHYVIDIVDIQKD", "soluble on expression in E. coli": "not soluble"}
{"sequence": "MKILAFETSTEACSVALHVDGAVRERFELAPRRHAELALPWAEQLLAEAGISRRQLDAIAVGRGPGAFSGVRLAIGIVQGIALALDLPVLAISTLQVLALRAPAEASHVLACIDARMGEVYAGLFERQGEALLTLGSEVVCAPEAVLLPQSTPQWAGVGTGLAAGEMPLQQRFAGRLSSVDAAALPHAADLLTLALPAALRGEGVAPERVEPAYLRDNVALTLVEQQAARAAKAAAVPR", "soluble on expression in E. coli": "soluble"}
{"sequence": "MKILAISDPHGDYSKMKQIIEKAGDFDLAVVVGDITNFGPDEQVDELAEMFDKPVLAIPGNCDQKTILEALENSKAVNLHGKAEQIGKIRFIGLGGSNPTPFNTPFELSEEEIENALEGMVCSAENSGECGTIVLLTHAPPLGARDELPFGHVGSKAIQKFLDRVDLIVCGHIHEAKGSEKVGKTVVVNPGEACKGSCALIEIEETGNKPIEVEFVEVLEHHHHHH", "soluble on expression in E. coli": "not soluble"}
{"sequence": "MKILALDTSALVAAVAVMEDDRLLAEYMLNHRKTHSQQLVAMIREVLASLELAPKDIDVFAASTGPGSFTGLRIGVTTVKAMAYATGKPVVSVPTLDAIAYNIPMNSFTICPVMDARNNQVYTALYDWDENGQKRITDYMGIPVSELVQLIKDMGKKVIFAGDAAKMHEEYFTQELGDDCKIAPGNLLLQRASSVARLAYLKAMNNELESCFDMVPFYLRKSQAEREYEKKLCKDC", "soluble on expression in E. coli": "not soluble"}
{"sequence": "MKILNRLATDVGLMLRRPPRQQYAALCYRLSKSNPEPEVLLLTSRDTGRWVIPKGWPMANKKAHAVAEQEAYEEAGVKGTVEKAPFGYYEYEKKLNSGINVPCKVQVHLLEVSEMRDSFPEKDARRLEWVSPREAGKRVNEPELKALMLAFDKRMAHSQ", "soluble on expression in E. coli": "not soluble"}
{"sequence": "MKILVTSGGTSEAIDSVRSITNHSTGHLGKIITETLLSAGYEVCLITTKRALKPEPHPNLSIREITNTKDLLIEMQERVQDYQVLIHSMAVSDYTPVYMTGLEEVQASSNLKEFLSKQNHQAKISSTDEVQVLFLKKTPKIISLVKEWNPTIHLIGFKLLVDVTEDHLVDIARKSLIKNQADLIIANDLTQISADQHRAIFVEKNQLQTVQTKEEIAELLLEKIQAYHSLEHHHHHH", "soluble on expression in E. coli": "soluble"}
{"sequence": "MKISLGPLLYCWEKQQVIDFYQQVANSQIPLVYLGEAVCSRRRELKWGDYLELAKMLKSAGKDVVLSTLALIEAPSEYTELKRQVDNGEFMIEANDMAAVYLAKEHKQPFVCGASINNYNRASLDILQRLGMQRFVMPVELSKTWLSQVVDKKPSFEVEVLGHGYLPLAHSARCFTARHSQLAKDSCETVCRQYSKGLLAQTQEAQPLLRLNGIQTQSASCVDLRSEISAMVKIGVDVFRVSPSSLACIAKADALVEALNSGAMDAQYPLSDEHCNGYWFGEAGLKSLS", "soluble on expression in E. coli": "soluble"}
{"sequence": "MKITAVETLYCNAGWRNLSFLKISTDEGLVGWAEFPENHINNVLSPLVRHMGQQILGEDPRRIHPVIDRLRRAAWGVPFGAVSRAIGAIENALVDIKAKAIGVPAYELIGGRMRDDIRMYWSHCGSYHVTNWKDLGVPRITSLDDVKSLGRQVRESGYHALKTNLMMFDRPEPYMYRPGFAGGSGDPDRNPLRSAISAAVDQMTAFREGAGPDIGLKLDVNFNFRPEGYIRLAHALEPVDLDWLEIDNFDAKAVAQVRRASRIPIASCETLSGRRQLRPYLEEQAVDVVIIDVPWNGIYEAMRMAALADSFEVNVATHNFCGPIATLISAHFCAAVPNFRVMEMDVVQVPWTNDLITNPPTIERGYMRLPDGPGWGADVNEEALRAHPPVAAKH", "soluble on expression in E. coli": "not soluble"}
{"sequence": "MKITPLDIQQQQFKGKMLGGIDPEDVDSFLQLVAQEMEGLIRENTDLREQCRKAAADAEQTARQERELREAMLAAQKITEEMKANAQKEASLIVSEAEVKAEKILVDAERRLGQLNEQLQDLRRQKLQFESAFKALLDTHYKMISLEDA", "soluble on expression in E. coli": "not soluble"}
{"sequence": "MKITVIVPTYRRTKDLTRCLESLEKQSRPADEVLVVVRDTDVETWQFLETIAPHSLPLHTTTVRVPGVVAAMNAGLDIAQGDIIAFTDDDAAPHSNWLAQIETHFLAHEQIAGVGGRDWVYHGDRLEDGTCPVVGQVHWFGRVIGNHHIGIGKPREVDVLKGVNMSFRRSAVHGLRFDQRMLGTGAQVHFEVAFCLALKRAGWKLIYDPQIGVNHYPAQRFLEHHHHHH", "soluble on expression in E. coli": "not soluble"}
{"sequence": "MKIVIAPDSYKESLSALEVATAIEQGFREIWPDADYLKLPLADGGEGTVEAMVEATAGRIVHVEVTGPLGHRVNAFYGLSGDARSAFIEMAAASGLEQVPPAQRDPLKTTSWGTGELIRHALDAGVEHIIIGIGGSATNDGGAGMVQALGARLRDAQGNDIAQGGIGLETLASIDISGLDKRLSACHIEVACDVTNPLTGKEGASAVFGPQKGATPEMIERLDTALTRYAHLIARDLHVDVLDLAGGGAAGGMGAALYAFCGAQLRRGIEIVTDALHLEACLADADLVITGEGRIDSQTIHGKVPIGVANIAKRYNKPVIGIAGSLTADVSVVHEHGLDAVFSVIYTICTLEDALKNASENVRMTARNVAATLKAGQQLR", "soluble on expression in E. coli": "not soluble"}
